For experiment [1], the target named is T1, cynomolgus monkey E-selectin extracellular domain with 10 His purification tail (cynomolgus monkey, UniProt P16581 22-554 (human entry)).
T1 construct: also called cynomolgus E-selectin; truncated cynomolgus monkey E-selectin
T1 chain: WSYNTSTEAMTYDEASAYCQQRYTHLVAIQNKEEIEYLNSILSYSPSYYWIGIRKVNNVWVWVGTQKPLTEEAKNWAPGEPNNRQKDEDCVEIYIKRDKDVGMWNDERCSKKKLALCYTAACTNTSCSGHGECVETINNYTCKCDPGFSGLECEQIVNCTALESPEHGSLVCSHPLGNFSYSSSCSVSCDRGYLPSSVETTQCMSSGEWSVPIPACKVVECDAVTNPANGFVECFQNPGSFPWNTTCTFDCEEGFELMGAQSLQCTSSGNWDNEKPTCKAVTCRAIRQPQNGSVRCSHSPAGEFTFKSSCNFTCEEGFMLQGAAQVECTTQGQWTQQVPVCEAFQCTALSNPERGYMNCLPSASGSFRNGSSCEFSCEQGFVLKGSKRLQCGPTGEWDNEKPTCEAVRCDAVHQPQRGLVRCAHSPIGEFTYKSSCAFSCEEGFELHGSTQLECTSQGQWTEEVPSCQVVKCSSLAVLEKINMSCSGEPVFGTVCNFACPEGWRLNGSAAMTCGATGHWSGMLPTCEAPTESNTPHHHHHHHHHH
Put plainly: AlphaLISA competition vs sialyl Lewis A-PAA-biotin; AlphaLISA neutralization assay (ligand competition), not SPR. The procedure: The neutralization ability of anti-E-selectin antibodies was measured in an AlphaLISA homogenous competition assay. […] This was incubated at room temperature for 15 minutes, followed by addition of 1.4 μL of human, mouse or cynomolgus monkey E-selectin added to a final concentration of 7 nM. This was again incubated at room temperature for 15 minutes. To this, 1.4 μL AlphaLISA beads was added (Ni-donor/SA-acceptor) for a final assay concentration of 10 μg/mL. This was incubated in the dark at room temperate for at least 10 hours. The plates were then read using the AlphaLISA protocol (Envision).

In experiment [2] the target is T2, recombinant histidine-tagged human E-selectin (Sino Biologicals; 13025-H08H) (human, UniProt P16581 22-556).
T2 construct: also called recombinant human E-selectin; soluble recombinant human E-selectin
T2 sequence (looked up): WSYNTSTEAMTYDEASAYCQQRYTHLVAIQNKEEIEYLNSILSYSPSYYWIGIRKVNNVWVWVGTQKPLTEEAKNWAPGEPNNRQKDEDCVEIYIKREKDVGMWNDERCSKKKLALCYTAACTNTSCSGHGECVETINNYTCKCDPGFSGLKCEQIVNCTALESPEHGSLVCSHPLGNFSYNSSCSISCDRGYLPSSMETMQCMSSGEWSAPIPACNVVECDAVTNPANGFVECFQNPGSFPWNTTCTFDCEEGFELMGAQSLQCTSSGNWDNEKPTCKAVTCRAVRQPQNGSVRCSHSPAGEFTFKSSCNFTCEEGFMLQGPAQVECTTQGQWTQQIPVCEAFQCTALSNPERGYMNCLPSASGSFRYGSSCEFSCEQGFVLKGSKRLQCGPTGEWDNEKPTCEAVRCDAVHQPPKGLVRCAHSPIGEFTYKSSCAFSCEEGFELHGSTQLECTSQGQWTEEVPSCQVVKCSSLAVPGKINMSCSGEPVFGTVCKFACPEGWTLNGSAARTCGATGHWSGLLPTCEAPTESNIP
Put plainly: direct binding ELISA, soluble recombinant protein. The procedure:
(§1) Recombinant histidine tagged human P-, E- or L-selectin (Sino Biologicals), mouse E-selectin (Sino Biologicals), rat E-selectin (Sino Biologicals) and Cynomolgus monkey E-selectin (Sino Biologicals) stock solutions were prepared to a final concentration of 1 μg/mL in phosphate buffered saline without calcium and magnesium. Controls included an L-selectin directed antibody (BioLegend; 304811) or P-selectin directed antibody or a negative control IgG. One hundred μL per well of the diluted recombinant selectin proteins were added into a Ni-NTA HisSorb 96 well plate (Qiagen; 35061). Plates were incubated on an orbital shaker at room temperature for 2 hours. Following the incubation, the plates were washed 3 times with 200 μL of wash buffer (50 mM TRIS [trisaminomethane]; 150 mM sodium chloride; 0.05% polysorbate 20, pH 7.4). […] Anti L-selectin and anti-rat-E-selectin antibodies were detected using 1 to 25000 dilution of Peroxidase-conjugated AffiniPure Goat Anti-Mouse IgG (H+L); (Jackson ImnnunoResearch Lab).
(§2) Plates were washed and 100 μL per well of 1-Step Ultra TMB substrate (Thermo Scientific) was added and incubated for 5 minutes at room temperature. Reactions were stopped with 100 μL of 2 M sulfuric acid and absorbance read at 450 nm (Spectramax M5e).

In experiment [3] the target is T3, recombinant histidine-tagged cynomolgus monkey E-selectin (Sino Biologicals; 190169-C08H) (cynomolgus monkey, UniProt A0A2K5U7H9 22-554).
T3 construct: also called recombinant cynomolgus monkey E-selectin
T3 sequence: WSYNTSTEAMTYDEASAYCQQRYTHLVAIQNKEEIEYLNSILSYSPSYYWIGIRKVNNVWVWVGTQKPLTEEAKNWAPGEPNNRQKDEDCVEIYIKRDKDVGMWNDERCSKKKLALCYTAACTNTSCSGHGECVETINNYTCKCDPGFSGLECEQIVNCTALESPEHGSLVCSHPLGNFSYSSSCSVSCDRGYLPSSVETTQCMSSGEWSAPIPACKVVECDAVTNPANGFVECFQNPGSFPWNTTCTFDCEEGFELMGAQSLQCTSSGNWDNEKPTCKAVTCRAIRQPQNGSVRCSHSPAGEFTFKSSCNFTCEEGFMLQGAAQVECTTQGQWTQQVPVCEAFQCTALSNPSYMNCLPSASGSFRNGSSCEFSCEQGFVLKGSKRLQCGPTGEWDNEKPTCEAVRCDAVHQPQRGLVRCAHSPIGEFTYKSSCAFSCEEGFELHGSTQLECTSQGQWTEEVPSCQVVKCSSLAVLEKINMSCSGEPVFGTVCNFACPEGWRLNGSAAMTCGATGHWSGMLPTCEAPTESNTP
Put plainly: direct binding ELISA, soluble recombinant protein. How it is done:
as §1, §2
(An ELISA detects its analyte on a solid surface through an enzyme-linked reagent.)

By EC50 is commonly meant the concentration needed to bring the measured effect to its halfway point.

B1: anti-E-selectin antibody 0158 chimera (antibody, human IgG1, kappa, V domains shown)
VH: QVQLKESGPGLVQPSETLSLTCTVSGFSISTYNVHWLRQPPGKGLEWMGMMWSGGSPDYNSALKSRLSISRDTSKNQVFLKMNSLQSEDTTTYYCARWGGGFDYWGQGVMVTVSS
VL: DIVLTQSPTTLSVTPGETVSLSCRASHSIGTNLHWYQQKTNESPRLLIKFTSQSISGIPSRFSASGSGTDFTLNINNVEFDDVSSYFCQQTQSWPLTFGSGTKLEIKR
notes: rat VH/VL on effector-null human IgG1 and human kappa
Regarding B1, the EC50 in experiment [1] was under 1 nM.

B2: optimized anti-E-selectin antibody 1444 (antibody, human IgG1, kappa, V domains shown)
VH: EVQLVESGGGLVQPGGSLRLSCAASGYAIRSAYMHWVRQAPGKGLEWVARIDPANGNTIYVDSVTGRFTISADNAKNSAYLQMNSLRAEDTAVYYCAMDLYSTSEYWGQGTLVTVSS
VL: DIQMTQSPSSLSASVGDRVTITCKTSQNIERYLNWYQQKPGKAPKLLIYAASSLQSGVPSRFSGSGSGTDFTLTISSLQPEDFATYFCLQDNAWPLTFGQGTKVEIKR
notes: effector-null human IgG1, kappa
Consider B2, for which the EC50 in experiment [2] fell in the range of 0.085 to 0.12 nM; in experiment [3], 0.071 to 0.093 nM.
